From article PMC2444022

What was measured:
[1] = system: LysRS(T133A) (Escherichia coli); assay: EMSA; settings: gel-retardation buffer, pH and temperature not in material
[2] = system: LysRS(K130A) (Escherichia coli); assay: EMSA; settings: gel-retardation buffer, pH and temperature not in material
[3] = system: LysRS wild type (lysyl-tRNA synthetase) (Escherichia coli); assay: EMSA; settings: reference; gel-retardation buffer, pH and temperature not in material
[4] = system: LysN (anticodon-binding domain of LysRS) (Escherichia coli); settings: gel-retardation buffer, pH and temperature not in material; cited from earlier work

Row | Substance | binding signal (fraction of WT bound) [1] | binding signal (fraction of WT bound) [2] | binding signal (fraction of WT bound) [3] | Kd [4] [µM]
1 | tRNALys | 1.17 | 0.35 | 1 | 
2 | tRNALys (unlabeled competitor) |  |  |  | 100
